Experimental data taken from patent US20040219558, “Novel compositions with polymerase activity” (MJ Bioworks Incorporated, published 2004).

Molecular target: T1, Pfu DNA polymerase (Pyrococcus furiosus, UniProt P61875 SEQ:1-775)
T1 sequence: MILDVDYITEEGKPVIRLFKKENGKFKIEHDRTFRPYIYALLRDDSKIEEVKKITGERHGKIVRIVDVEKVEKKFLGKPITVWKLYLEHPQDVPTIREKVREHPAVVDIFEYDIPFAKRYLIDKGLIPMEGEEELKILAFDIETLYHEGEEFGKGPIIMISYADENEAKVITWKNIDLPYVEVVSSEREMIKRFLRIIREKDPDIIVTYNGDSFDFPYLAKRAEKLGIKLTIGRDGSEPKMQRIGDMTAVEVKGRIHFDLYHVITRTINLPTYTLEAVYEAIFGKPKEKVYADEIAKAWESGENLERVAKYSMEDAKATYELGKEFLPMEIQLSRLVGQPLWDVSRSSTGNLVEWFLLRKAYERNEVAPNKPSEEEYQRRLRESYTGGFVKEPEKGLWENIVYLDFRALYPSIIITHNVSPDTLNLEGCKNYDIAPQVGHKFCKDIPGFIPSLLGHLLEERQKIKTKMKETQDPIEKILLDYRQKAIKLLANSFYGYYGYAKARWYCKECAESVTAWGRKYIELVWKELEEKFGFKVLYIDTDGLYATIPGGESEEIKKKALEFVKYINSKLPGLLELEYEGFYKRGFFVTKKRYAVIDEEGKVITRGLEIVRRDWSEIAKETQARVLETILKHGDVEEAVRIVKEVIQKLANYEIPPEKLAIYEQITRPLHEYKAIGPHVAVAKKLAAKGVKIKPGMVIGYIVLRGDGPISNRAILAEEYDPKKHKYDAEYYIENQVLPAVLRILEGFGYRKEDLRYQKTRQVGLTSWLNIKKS
Assay: 3'-5' exonuclease fluorescence assay, 65 C; high exonuclease activity
Conditions: tags: Stratagene (commercial); label: 5'-FAM, 3'-dabcyl; hairpin, 16 bp stem with 3' T:T* mismatch and 5' unpaired poly-T
Procedure: The oligonucleotide was combined with buffer and the enzyme and incubated in a real time detection instrument, the DNA Engine Opticon System (MJ Research, Inc.). This instrument excites the FAM and detects any fluorescence if present. In the absence of 3′ to 5′ exonuclease activity, there is only background fluorescence because FAM is quenched by DAB. However if the enzyme does have 3′ to 5′ exonuclease activity, the T:T* mismatch is recognized and the 3′-T* is removed. The DAB is released and will no longer quench the FAM fluorescence. The Opticon System will detect the increase in fluorescence with increasing time (readings were taken every 10 sec at 65° C.). The rate of fluorescence increase directly reflects the amount of 3′ to 5′ exonuclease activity. […] The results (FIG. 3) of this analysis are discussed below.

TTTTTTGAGGTGTGTCCTACACAGCGGAGTGTAGGACACACCTCT (structured_DNA, 3' terminal T is amino-link dT carrying dabcyl) [FAM/dabcyl hairpin exonuclease substrate]: binds.
